Test results reported in PMC3094209.

Columns and labels:
[1] = target: human angiotensin receptor type 2 expressed in P. pastoris (human) (UniProt P50052); experiment: radioligand binding; membranes from small-scale cultures; radioactive-labelled specific ligand; specific binding in pmol/mg-membrane, mean ± S.D., n = 3
[2] = target: human angiotensin receptor type 2 expressed in Sf9 insect cells (human) (UniProt P50052); experiment: as above

specific binding activity (pmol/mg-membrane) [1]: 3.69
specific binding activity (pmol/mg-membrane) [2]: 1.66
Substance: Angiotensin (printed as "Angiotenin"), radioactive-labelled agonist (peptide)
